Source: paper PMC5638241, “Chlorophyte aspartyl aminopeptidases: Ancient origins, expanded families, new locations, and secondary functions” (PLoS ONE, 2017)

Tests used:
[1] = molecular target: Arabidopsis thaliana aspartyl aminopeptidase 2, mature (without transit peptide), with N-terminal His6 (His6-DAP2) (Arabidopsis thaliana); test: native gel or EMSA; series of native polyacrylamide gels (4, 4.5, 5 and 6% acrylamide) of Ni-NTA-purified His6-DAPs; masses from relative mobilities and retardation coefficients (Hedrick and Smith; Bryan), BSA and urease as mass standards
[2] = molecular target: the molecule itself; test: as above
purified protein = substrate: N[C@@H](CC(=O)O)C(=O)Nc1ccc([N+](=O)[O-])cc1; test: purified protein; format: biochemical, Arabidopsis thaliana; conditions: 50 mM Tris-HCl pH 8.0, enzyme pre-activated with 0.5 mM MnCl2

Molecule | stoichiometry N [1] | stoichiometry N [2] | Km (purified protein) [µM] | kcat/Km (purified protein) [M⁻¹ s⁻¹]
Arabidopsis thaliana aspartyl aminopeptidase 2, mature (without transit peptide), with N-terminal His6 (His6-DAP2) (enzyme) | 12 |  |  | 
Arabidopsis thaliana aspartyl aminopeptidase 1 with N-terminal His6 (His6-DAP1) (enzyme, UniProt Q9LST0 1-477, looked up, AtDAP1 (At5g60160), M18 aspartyl aminopeptidase of Arabidopsis thaliana ecotype Columbia; entire coding region of the DAP1 cDNA (nucleotides 86 to 1519 of NM_125409) cloned into pET28; Monomer 54.6 kDa as printed; also called AtDAP1; At5g60160; source: E. coli BL21[DE3]pLys, purified (Ni-NTA, 100-kDa MWCO Centricon); not shown: His6, N-terminal, kept; copies: 12) MDKSSLVSDFLSFLNASPTAFHAVDESKRRLLKAGYEQISERDDWKLEAGKKYFFTRNYSTIVAFAIGHKYVAGNGFHIIGAHTDSPCLKLKPVSKITKGGCLEVGVQTYGGGLWYTWFDRDLTVAGRVILKEEKAGSVSYSHRLVRIEDPIMRIPTLAIHLDRNVNTEGFKPNTQTHLVPVLATAIKAELNKTPAESGEHDEGKKCAETSSKSKHHPLLMEIIANALGCKPEEICDFELQACDTQPSILAGAAKEFIFSGRLDNLCMSFCSLKALIDATSSGSDLEDESGIRMVALFDHEEVGSNSAQGAGSPVMIDAMSHITSCFSSDTKVLKKAIQKSLLVSADMAHALHPNFMDKHEENHQPKMHGGLVIKHNANQRYATNAVTSFVFREIAEKHNLPVQDFVVRNDMGCGSTIGPILASSVGIRTVDVGAPQLSMHSIREMCAADDVKHSYEHFKAFFQEFTHLDAKLTIDV |  | 12 | 1250 | 
His6-DAP2 (mature AtDAP2) (Arabidopsis thaliana) (protein, mature form without 63-residue transit peptide, N-terminal His6 fusion (pET28), E. coli BL21(DE3)pLysS, Ni-NTA; no tag removal mentioned) ASIVGDLLDYLNESWTQFHATAEAKRQLLAAGFDLLSENEDWNLKPGGRYFFTRNMSCLVAFAVGEKYVPGNGFHAIAAHTDSPCLKLKPKSASSKSGYLMVNVQTYGGGLWHTWFDRDLSVAGRAIVRASDGSFVHRLVKVKRPLLRVPTLAIHLDRTVNSDGFKPNLETQLVPLLATKSDESSAESKDKNVSSKDAHHPLLMQILSDDLDCKVEDIVSLELNICDTQPSCLGGANNEFIFSGRLDNLASSFCALRALIDSCESSENLSTEHDIRMIALFDNEEVGSDSCQGAGAPTMFQAMRRIVSSLGNKQVTECTFDRAIRKSFLVSADMAHGVHPNFADKHEENHRPQLHKGLVIKHNANQRYATSGITSFLFKEVAKLHDLPIQEFVVRNDMGCGSTIGPILASGVGIRTVDCGIAQLSMHSVREICGTDDIDIAYRHFKAFYRSFSSVDKKLVVDD |  |  | 210 | 3.47e+07
